Data taken from patent US20110195027A1.
Where “and” joins values, the source holds several entries; their conditions need not be identical. Equal entries are not always repeated.

Legend:
Test in all cases: ELISA: antibody coated, supernatant, anti-His-HRP
[1] = molecular target: CD9-ECL2 mutant M1 (human, with rat residues) (UniProt P21926)
[2] = molecular target: p-Myc-His CD9-ECL2 wild type (human)
[3] = molecular target: CD9-ECL2 mutant M4 (human, with rat residues) (UniProt P21926)
CD9-ECL2 mutant M4 (human, with rat residues), sequence (P21926 other isoform, or with tags, fused parts or gaps mutant): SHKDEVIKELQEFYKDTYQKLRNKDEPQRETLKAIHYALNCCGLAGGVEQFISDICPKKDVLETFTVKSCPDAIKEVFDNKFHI

p-Myc-His CD9-ECL2 wild type (human), sequence (chain, as listed by the source limits assumed): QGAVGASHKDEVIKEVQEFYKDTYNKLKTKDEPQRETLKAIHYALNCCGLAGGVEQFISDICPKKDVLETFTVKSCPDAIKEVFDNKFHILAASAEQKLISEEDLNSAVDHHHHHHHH
CD9-ECL2 mutant M1 (human, with rat residues), sequence (P21926 other isoform, or with tags, fused parts or gaps mutant): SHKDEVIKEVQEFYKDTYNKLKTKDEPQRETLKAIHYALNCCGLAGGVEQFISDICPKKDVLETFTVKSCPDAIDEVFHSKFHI

Substance: ALB6 (anti-CD9, Beckman coulter) (antibody)
- OD490 [1]: 0.334 and 0.383
- OD490 [2]: 0.427 and 0.506
- OD490 [3]: 0.485 and 0.574

Substance: normal human IgG (antibody)
- OD490 [1]: 0.054
- OD490 [2]: 0.056
- OD490 [3]: 0.053

Substance: normal mouse IgG (antibody)
- OD490 [1]: 0.046 and 0.056
- OD490 [2]: 0.044 and 0.053
- OD490 [3]: 0.04 and 0.047
